Measured values taken from publication PMC4929722.

Experiments:
[1] = molecular target: BTas-B (bovine foamy virus transactivator Tas of clone pBS-BFV-B, N108) (bovine foamy virus (BFV3026)); assay: cross-linking; lysates of transfected HEK293T cells (20 mM Tris-Cl pH 7.5, 150 mM EDTA, 0.5 mM Na3VO4, 1 % NP-40) mixed with 0.01 % glutaraldehyde in 20 mM triethanolamine pH 8.2, 10 mM NaCl, 30 min at room temperature; 12 % SDS-PAGE and immunoblot with anti-BTas
[2] = molecular target: BTas-Y (bovine foamy virus transactivator Tas of clone pBS-BFV-Y, D108) (bovine foamy virus (BFV3026)); assay: as above

BTas-B (bovine foamy virus transactivator Tas of clone pBS-BFV-B, N108) (natural protein)
stoichiometry N [1]: 2

BTas-Y (bovine foamy virus transactivator Tas of clone pBS-BFV-Y, D108) (natural protein)
stoichiometry N [2]: 2
